Measurements taken from article PMC12068309, “AHCYL1 mediates the tumor-promoting effect of PREX2 in non-small cell lung carcinoma” (Theranostics, 2025).

Molecular target: T1, purified Flag-PREX2 protein (UniProt Q70Z35 1-1606)
T1 construct: PREX2, full length (183 kD); it may be the same construct; also called purified PREX2 protein; purified full-length PREX2; source: recombinant, purified (as described in Supplementary materials and methods)
Experiment: pull-down; 25 µL AHCYL1-binding glutathione magnetic beads with 250 ng purified Flag-PREX2, on ice 1 h; washed with 50 mM Tris-HCl pH 7.4, 300 mM NaCl, 0.5% NP40; detected by Flag antibody
Settings: both partners purified

T1 sequence (Q70Z35 whole entry): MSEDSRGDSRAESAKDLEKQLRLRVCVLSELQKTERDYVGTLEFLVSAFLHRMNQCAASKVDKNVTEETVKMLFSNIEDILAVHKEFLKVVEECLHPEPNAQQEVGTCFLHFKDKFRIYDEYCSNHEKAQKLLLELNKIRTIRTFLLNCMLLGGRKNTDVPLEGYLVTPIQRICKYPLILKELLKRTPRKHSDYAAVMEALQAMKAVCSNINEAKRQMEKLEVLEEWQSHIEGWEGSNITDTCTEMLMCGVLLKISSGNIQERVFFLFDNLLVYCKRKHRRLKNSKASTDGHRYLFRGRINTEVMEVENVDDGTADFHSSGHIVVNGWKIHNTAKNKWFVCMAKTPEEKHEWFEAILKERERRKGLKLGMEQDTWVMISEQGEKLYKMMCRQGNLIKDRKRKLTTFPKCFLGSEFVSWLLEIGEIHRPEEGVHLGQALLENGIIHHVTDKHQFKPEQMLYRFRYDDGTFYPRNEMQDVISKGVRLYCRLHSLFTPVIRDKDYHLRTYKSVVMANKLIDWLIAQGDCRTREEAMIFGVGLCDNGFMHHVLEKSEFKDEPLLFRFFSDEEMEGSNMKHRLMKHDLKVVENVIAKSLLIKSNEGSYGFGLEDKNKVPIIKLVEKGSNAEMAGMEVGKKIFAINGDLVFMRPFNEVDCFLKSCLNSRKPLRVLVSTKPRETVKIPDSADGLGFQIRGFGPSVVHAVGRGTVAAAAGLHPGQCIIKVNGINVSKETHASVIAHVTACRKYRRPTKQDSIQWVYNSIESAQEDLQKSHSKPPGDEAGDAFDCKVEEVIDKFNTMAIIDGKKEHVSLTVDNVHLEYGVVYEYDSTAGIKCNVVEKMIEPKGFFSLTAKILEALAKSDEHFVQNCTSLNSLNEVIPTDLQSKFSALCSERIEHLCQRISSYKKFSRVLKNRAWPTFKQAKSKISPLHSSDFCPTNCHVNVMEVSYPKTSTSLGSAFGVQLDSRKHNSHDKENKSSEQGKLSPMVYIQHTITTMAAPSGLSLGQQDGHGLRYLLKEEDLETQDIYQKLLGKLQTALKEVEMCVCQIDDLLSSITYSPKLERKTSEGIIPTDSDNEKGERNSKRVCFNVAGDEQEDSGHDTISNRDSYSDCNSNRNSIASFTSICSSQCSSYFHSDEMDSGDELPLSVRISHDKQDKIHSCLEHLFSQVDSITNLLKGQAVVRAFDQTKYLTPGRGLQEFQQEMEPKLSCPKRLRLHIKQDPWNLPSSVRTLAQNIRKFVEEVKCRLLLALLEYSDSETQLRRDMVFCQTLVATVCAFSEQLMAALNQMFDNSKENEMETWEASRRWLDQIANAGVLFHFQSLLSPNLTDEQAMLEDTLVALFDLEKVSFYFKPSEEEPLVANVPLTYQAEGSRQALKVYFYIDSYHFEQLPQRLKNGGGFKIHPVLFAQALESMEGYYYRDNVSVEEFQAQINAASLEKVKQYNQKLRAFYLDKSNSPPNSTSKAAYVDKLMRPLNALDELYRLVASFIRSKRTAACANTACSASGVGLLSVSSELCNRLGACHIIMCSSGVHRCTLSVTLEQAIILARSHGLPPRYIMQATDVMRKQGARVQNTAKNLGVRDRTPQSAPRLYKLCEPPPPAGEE

B1: GST-AHCYL1 recombinant protein (natural protein, UniProt O43865 1-530, looked up)
chain: MSMPDAMPLPGVGEELKQAKEIEDAEKYSFMATVTKAPKKQIQFADDMQEFTKFPTKTGRRSLSRSISQSSTDSYSSAASYTDSSDDEVSPREKQQTNSKGSSNFCVKNIKQAEFGRREIEIAEQDMSALISLRKRAQGEKPLAGAKIVGCTHITAQTAVLIETLCALGAQCRWSACNIYSTQNEVAAALAEAGVAVFAWKGESEDDFWWCIDRCVNMDGWQANMILDDGGDLTHWVYKKYPNVFKKIRGIVEESVTGVHRLYQLSKAGKLCVPAMNVNDSVTKQKFDNLYCCRESILDGLKRTTDVMFGGKQVVVCGYGEVGKGCCAALKALGAIVYITEIDPICALQACMDGFRVVKLNEVIRQVDVVITCTGNKNVVTREHLDRMKNSCIVCNMGHSNTEIDVTSLRTPELTWERVRSQVDHVIWPDGKRVVLLAEGRLLNLSCSTVPTFVLSITATTQALALIELYNAPEGRYKQDVYLLPKKMDEYVASLHLPSFDAHLTELTDDQAKYLGLNKNGPFKPNYYRY
notes: AHCYL1 (IRBIT); Construct details are in the supplementary materials and methods; also called AHCYL1 conjugated-GST beads; source: recombinant, purified (as described in Supplementary materials and methods)
binding result: binds
